Results taken from patent US20100323955A1, “METHODS FOR TREATING OBESITY AND OBESITY RELATED DISEASES AND DISORDERS” (AMYLIN PHARMACEUTICALS, INC., priority 2007, published 2010).

Assays:
[1] = Example 3: leptin effect on body weight in normal HSD versus DIO prone rats; format: in vivo, rat; conditions: FIG. 9
Text: Normal, lean HSD rats were divided into two treatment groups. […] […] The DIO prone animals described herein appear resistant to the weight reducing effect of leptin.

[2] = Example 8: 24-week randomized, double-blind clinical study of pramlintide and metreleptin in overweight and obese subjects; format: in vivo, human; conditions: 4-week lead-in; all subjects received pramlintide 180 then 360 mcg BID; columns name the later randomization groups
Description: To evaluate inter alia the safety, tolerability and effect of the combination of an amylin agonist (pramlintide) and a leptin (metreleptin) on changes in body weight, a 24-week, randomized, double-blind, active-drug-controlled, multicenter study was conducted under USFDA approved protocols. Secondary objectives of the study were the determination of the pharmacokinetics of pramlintide and leptin, waist circumference, rate of change in body weight, and patient reported outcomes including for example without limitation perception of well-being related to weight change and mood. The study enrolled overweight and obese subjects with defined BMI ([…]), with enrollment statistics as provided in Table 2. […] Subjects treated with pramlintide/metreleptin lost an average of 25 pounds from the start of the 24-week study compared with an average of 17 pounds for subjects treated with pramlintide alone.
In an initial lead-in phase, all subjects received dietary instructions and treatment with pramlintide at 180 mcg BID for two weeks, followed by pramlintide at 360 mcg BID for two weeks. Subjects who completed the 4-week lead-in period and who lost 2-8 percent body weight during this period were eligible to continue the study. The term “enrolled” (Table 2) refers to subjects (N=177) receiving at least one dose of pramlintide during the lead-in period. […]

B1: murine leptin (protein, UniProt P41160 22-167, looked up)
Leptin: VPIQKVQDDTKTLIKTIVTRINDISHTQSVSAKQRVTGLDFIPGLHPILSLSKMDQTLAVYQQVLTSLPSQNVLQIANDLENLRDLLHLLAFSKSCSLPQTSGLQKPESLDGVLEASLYSTEVVALSRLQGSLQDILQQLDVSPEC
notes: murine leptin (Peprotech, catalog#450-31)
body weight, DIO prone animals ([1]; DIO prone rats, leptin dose printed 500 mg/kg/day): ineffective
body weight, normal HSD rats ([1]; normal, lean HSD rats, leptin 500 μg/kg/day, 14 days): significant and sustained reduction in body weight
Mean Change in Body Weight (kg) over lead-in period [2]: -3.97 kg
